Target: Ab126 antibody
Test: direct competition ELISA: 0.1 µg recombinant PCNA on plate, peptide UMPB6 (0.024-2400 ng/well) mixed with Ab126, anti-rabbit IgG-AP, OD 405 nm

IC50: 0.1 µg/mL
Binder: LGIPEQEY [antigenic peptide UMPB6 (equivalent to PCNA amino acids 126-133)]

— patent US20080206140A1
